Results as given in publication PMC12520249 (Nature, 2025).

B1: hGluD2(ΔATD), human GluD2 with the amino-terminal domain deleted (receptor, UniProt O43424-1 24-1007, looked up)
chain: DSIDKKLENNMRGVVLRVVTVLEEPFVMVSENVLGKPKKYQGFSIDVLDALSNYLGFNYEIYVAPDHKYGSPQEDGTWNGLVGELVFKRADIGISALTITPDRENVVDFTTRYMDYSVGVLLRRAEKTVDMFACLAPFDLSLWACIAGTVLLVGLLVYLLNWLNPPRLQMGSMTSTTLYNSMWFVYGSFVQQGGEVPYTTLATRMMMGAWWLFALIVISSYTANLAAFLTITRIESSIQSLQDLSKQTEIPYGTVLDSAVYEHVRMKGLNPFERDSMYSQMWRMINRSNGSENNVLESQAGIQKVKYGNYAFVWDAAVLEYVAINDPDCSFYTIGNTVADRGYGIALQHGSPYRDVFSQRILELQQNGDMDILKHKWWPKNGQCDLYSSVDTKQKGGALDIKSFAGVFCILAAGIVLSCFIAMLETWWNKRKGSRVPSKEDDKEIDLEHLHRRVNSLCTDDDSPHKQFSTSSIDLTPLDIDTLPTRQALEQISDFRNTHITTTTFIPEQIQTLSRTLSAKAASGFTFGNVPEHRTGPFRHRAPNGGFFRSPIKTMSSIPYQPTPTLGLNLGNDPDRGTSI
B2: hGluD2(R710W), human GluD2 with the cerebellar ataxia mutation R710W (receptor, UniProt O43424-1 24-1007, looked up)
chain: DSIIHIGAIFDESAKKDDEVFRTAVGDLNQNEEILQTEKITFSVTFVDGNNPFQAVQEACELMNQGILALVSSIGCTSAGSLQSLADAMHIPHLFIQRSTAGTPRSGCGLTRSNRNDDYTLSVRPPVYLHDVILRVVTEYAWQKFIIFYDSEYDIRGIQEFLDKVSQQGMDVALQKVENNINKMITTLFDTMRIEELNRYRDTLRRAILVMNPATAKSFITEVVETNLVAFDCHWIIINEEINDVDVQELVRRSIGRLTIIRQTFPVPQNISQRCFRGNHRISSTLCDPKDPFAQNMEISNLYIYDTVLLLANAFHKKLEDRKWHSMASLSCIRKNSKPWQGGRSMLETIKKGGVSGLTGELEFGENGGNPNVHFEILGTNYGEELGRGVRKLGCWNPVTGLNGSLTDKKLENNMRGVVLRVVTVLEEPFVMVSENVLGKPKKYQGFSIDVLDALSNYLGFNYEIYVAPDHKYGSPQEDGTWNGLVGELVFKRADIGISALTITPDRENVVDFTTRYMDYSVGVLLRRAEKTVDMFACLAPFDLSLWACIAGTVLLVGLLVYLLNWLNPPRLQMGSMTSTTLYNSMWFVYGSFVQQGGEVPYTTLATRMMMGAWWLFALIVISSYTANLAAFLTITRIESSIQSLQDLSKQTEIPYGTVLDSAVYEHVRMKGLNPFERDSMYSQMWWMINRSNGSENNVLESQAGIQKVKYGNYAFVWDAAVLEYVAINDPDCSFYTIGNTVADRGYGIALQHGSPYRDVFSQRILELQQNGDMDILKHKWWPKNGQCDLYSSVDTKQKGGALDIKSFAGVFCILAAGIVLSCFIAMLETWWNKRKGSRVPSKEDDKEIDLEHLHRRVNSLCTDDDSPHKQFSTSSIDLTPLDIDTLPTRQALEQISDFRNTHITTTTFIPEQIQTLSRTLSAKAASGFTFGNVPEHRTGPFRHRAPNGGFFRSPIKTMSSIPYQPTPTLGLNLGNDPDRGTSI

Molecular target: the molecule itself
Experiment: cryo-EM structure

Protein	binding result
B1	binds
B2	binds
